Test [1] concerns the target human CB1 on stably transfected CB1 CHO cells (human, UniProt P21554 1-472). Put plainly: cell-based or functional assay.
For test [2], the target named is T1, GFP-fused huCB1-SMALP (human CB1 in styrene maleic acid lipoparticles) (human, UniProt P21554 1-472).
T1 construct: Prepared as in Luna V. et al. 2018; also called huCB1-GFP-SMALP; wtCB1-SMALP; not shown: GFP fusion
Put plainly: flow cytometry, yeast-displayed IgG, GFP MFI. (In general: Flow cytometry measures light scatter and fluorescence of single cells or particles in a stream.)

For test [3], the target named is T2, His-tagged huCB1-ND (human CB1 in nanodisc) (human).
T2 construct: CB1 construct of Cell 167(3) (2016) 750-762 expressed in Sf9 cells; POPC:MSP1D1:CB1 480:8:1; also called CB1-nanodisc; huCB1-Nanodisc; not shown: histidine purification tag
Description: flow cytometry, yeast-displayed IgG, binding/display ratio.

In test [4] the target is T2, His-tagged huCB1-ND (human CB1 in …). Description: flow cytometry, yeast-displayed IgG, huCB1-ND over empty-ND.
Test [5] addresses T1, GFP-fused huCB1-SMALP (human CB1 in …). Description: flow cytometry, yeast-displayed IgG, GFP MFI. This is another data set of the same source.

Where a chain is given by its changes, count along the chain named. Names and notes keep the numbering of the source.

T1 sequence (P21554 whole entry, the tested form may be a part): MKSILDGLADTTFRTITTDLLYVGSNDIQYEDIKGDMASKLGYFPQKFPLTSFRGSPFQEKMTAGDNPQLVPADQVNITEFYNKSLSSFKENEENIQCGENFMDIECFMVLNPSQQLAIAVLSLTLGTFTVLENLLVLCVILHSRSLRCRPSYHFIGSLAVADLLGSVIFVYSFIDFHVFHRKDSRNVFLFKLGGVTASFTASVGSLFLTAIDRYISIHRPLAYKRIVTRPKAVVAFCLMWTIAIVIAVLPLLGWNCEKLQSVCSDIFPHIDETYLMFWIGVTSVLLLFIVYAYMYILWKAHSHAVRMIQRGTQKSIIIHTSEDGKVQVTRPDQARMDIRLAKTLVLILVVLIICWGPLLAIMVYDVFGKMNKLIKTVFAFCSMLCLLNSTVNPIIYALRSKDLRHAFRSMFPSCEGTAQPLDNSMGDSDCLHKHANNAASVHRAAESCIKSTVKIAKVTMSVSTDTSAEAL
human CB1 on stably transfected CB1 CHO cells, sequence (P21554 whole entry, the tested form may be a part): as above
T2 sequence (P21554 99-414): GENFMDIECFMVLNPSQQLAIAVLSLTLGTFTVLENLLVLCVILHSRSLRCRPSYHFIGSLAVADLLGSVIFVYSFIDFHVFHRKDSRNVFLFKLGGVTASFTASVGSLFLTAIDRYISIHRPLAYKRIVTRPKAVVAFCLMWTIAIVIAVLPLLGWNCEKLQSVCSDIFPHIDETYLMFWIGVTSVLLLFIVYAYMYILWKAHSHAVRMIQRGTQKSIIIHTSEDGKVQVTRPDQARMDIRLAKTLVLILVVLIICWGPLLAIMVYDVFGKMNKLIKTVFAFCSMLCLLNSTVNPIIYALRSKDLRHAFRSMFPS

B1: LIBC673965-1 (IgG1 SEFL2 mAb) (antibody, V domains shown)
VH: QVQLQESGPGLVKPSQTLSLTCTVSGGSIRRGGDYWSWIRQHPGKGLEWIGHVYYTGQTAYNPSLRGRVRISVNTYKNQFSLKLSSVTAADTAVYYCARGYDTSGYSYYYYGLDVWGQGTTVTVSS
VL: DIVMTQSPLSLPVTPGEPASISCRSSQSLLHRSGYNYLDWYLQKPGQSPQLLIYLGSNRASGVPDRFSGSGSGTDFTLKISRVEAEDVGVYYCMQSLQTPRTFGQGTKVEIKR
As to B1, the “IC50 (nM, n = 4), antagonist activity, TR-FRET cAMP assay” value (from here on “IC50 (nM, n = 4), antagonist activity”) in test [1] was 2.21 nM.

B2: LIBC673972-1 (IgG1 SEFL2 mAb) (antibody, V domains shown)
VH: B1 VH with V53I, S64N, G67N, T103A
VL: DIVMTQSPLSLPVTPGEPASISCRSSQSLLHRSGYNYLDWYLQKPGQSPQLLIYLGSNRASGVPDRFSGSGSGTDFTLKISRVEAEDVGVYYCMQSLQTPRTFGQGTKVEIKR
With B2, the “IC50 (nM, n = 4), antagonist activity” value in test [1] came out at 2.43 nM.

B3: LIBC673982-1 (IgG1 SEFL2 mAb) (antibody, V domains shown)
VH: B1 VH with V53I, Q58S, A60T, L65F, G100D, T103I, L113M
VL: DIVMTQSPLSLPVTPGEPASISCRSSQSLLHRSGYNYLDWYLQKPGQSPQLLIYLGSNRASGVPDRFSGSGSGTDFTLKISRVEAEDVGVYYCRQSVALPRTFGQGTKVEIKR
B3: the “IC50 (nM, n = 4), antagonist activity” value in test [1] is 2.11 nM.

B4: LIBC674200-1 (LC: G76D) (IgG1 SEFL2 mAb) (antibody, V domains shown)
VH: B1 VH with S64N, L65F, G67N, T103V, L113M
VL: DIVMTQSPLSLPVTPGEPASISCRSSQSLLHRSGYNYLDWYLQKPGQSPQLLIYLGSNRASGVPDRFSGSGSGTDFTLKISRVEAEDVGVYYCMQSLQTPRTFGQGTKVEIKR
As for B4, the “IC50 (nM, n = 4), antagonist activity” value in test [1] came out at 2.23 nM.

B5: LIBC680562-1 (IgG1 SEFL2 mAb) (antibody, V domains shown)
VH: QVQLQESGPGLVKPSQTLSLTCTVSGGSIRRGGDYWAWIRQHPGKGLEWIGHIYQTGSTNYNPRFKGRATISVNTYKNQFSLKLSSVTAADTAVYYCARNYDTLTGYSYYYYGMDVWGQGTTVTVSS
VL: DIQMTQSPSSLSASVGDRVTITCRASQSISSYLNWYQQKPGKAPKLLIYSARRLSSGVPSRFSGSGSGTDFTLTISSLQPEDFATYYCQQYAKSPITFGGGTKVEIKR
In the case of B5, the “IC50 (nM, n = 4), antagonist activity” value in test [1] was found to be 0.71 nM.

B6: LIBC681737-1(LC:P12S) (IgG1 SEFL2 mAb) (antibody, V domains shown)
VH: B5 VH with I53V, Q55Y, G67D, L104V
VL: B5 VL with S55A, A92Y, K93H, S94P
With B6, the “IC50 (nM, n = 4), antagonist activity” value in test [1] is 0.55 nM.

B7: LIBC681593-1 (IgG1 SEFL2 mAb) (antibody, V domains shown)
VH: B5 VH
VL: B5 VL with S50N, S55G, A92R, K93S, I96V
B7: the “IC50 (nM, n = 4), antagonist activity” value in test [1] was determined as 0.61 nM.

B8: LIBC680800-1 (IgG1 SEFL2 mAb) (antibody, V domains shown)
VH: B5 VH
VL: B5 VL with R53A, A92R, S94F, I96L
With B8, the “IC50 (nM, n = 4), antagonist activity” value in test [1] turned out to be 1.57 nM.

B9: LIBC680773-1 (IgG1 SEFL2 mAb) (antibody, V domains shown)
VH: B5 VH with I53V, Q55Y, G67D, L104V
VL: B5 VL with S50K, R53L, A92S, K93R, S94L, I96L
With B9, the “IC50 (nM, n = 4), antagonist activity” value in test [1] was 0.74 nM.

B10: LIBC528116-1 + VK1 germline fix(es) (IgG1 SEFL2 mAb) (antibody, V domains shown)
VH: B5 VH with I53V, Q55Y, G67D, L104V
VL: DIQLTQSPSTLSASVGDRVTITCRASQSISNYLNWYQQKPGKAPKLLIYAASSLHSGVPSRFSGSGSGTDFTLTISSLQPEDFASYYCQQYQSYPLTFGQGTKVEIKR
Turning to B10, in test [1], the “IC50 (nM, n = 4), antagonist activity” value stood at 2.02 nM.

B11: LIBC681594-1 (IgG1 SEFL2 mAb) (antibody, V domains shown)
VH: B5 VH
VL: B5 VL with S50K, R53K, Y91F, A92G, K93S, S94M, I96L
Regarding B11, the “IC50 (nM, n = 4), antagonist activity” value in test [1] was found to be 1.24 nM.

B12: 10D10 (antibody, V domains shown)
VH: QVQLQESGPGLVKPSQTLSLTCTVSGGSIRRGGDYWSWIRQHPGKGLEWIGYIYYSGSTNYNPSLKSRATISVDTSKNQFSLKLSSVTAADTAVYYCARDYDILTGYSYYYYGMDVWGQGTTVTVSS
VL: not shown
Regarding B12, the “IC50 (nM, n = 4), antagonist activity” value in test [1] amounted to 347 nM.

B13: LIBC673952-1 (IgG1 SEFL2 mAb) (antibody, V domains shown)
VH: QVQLQESGPGLVKPSQTLSLTCTVSGGSIRRGGDYWSWIRQHPGKGLEWIGHVYYTGQTTYNPSFRGRVTISVNTYKNQFSLKLSSVTAADTAVYYCARDYDILTGYSYYYYGLDVWGQGTTVTVSS
VL: DIVMTQSPLSLPVTPGEPASISCRSSQSLLHRSGYNYLDWYLQKPGQSPQLLIYQGSNRASGVPDRFSGSGSGTDFTLKISRVEAEDVGVYYCRQARALPRTFGQGTKVEIKR
As for B13, in test [1], the “IC50 (nM, n = 4), antagonist activity” value turned out to be 2.48 nM.

B14: LIBC680574-1 (IgG1 SEFL2 mAb) (antibody, V domains shown)
VH: B5 VH with I53V, Q55Y, N60K, R64S, G67D
VL: B5 VL with S50G, S55G, A92S, K93S, S94L, I96V
With B14, in test [1], the “IC50 (nM, n = 4), antagonist activity” value amounted to 0.75 nM.

B15: LIBC674200-1 (IgG1 SEFL2 mAb) (antibody, V domains shown)
VH: B1 VH with S64N, L65F, G67N, T103V, L113M
VL: B13 VL with Q55L, D65G, R94M, A96S, R97L, A98Q, L99T
As for B15, the “IC50 (nM, n = 4), antagonist activity” value in test [1] worked out at 2.39 nM.

B16: LIBC523596-1 (antibody, V domains shown)
VH: QVQLQESGPGLVKPSQTLSLTCTVSGGSIRRGGDYWSWIRQHPGKGLEWIGHVYQSGQTAYNPNFEDRATISVNTYKNQFSLKLSSVTAADTAVYYCAREYDVVSGYSYYYYGMDVWGQGTTVTVSS
VL: B13 VL with H31T, R32S, L38V, R94M, R97V, A98K, L99I
Take B16: the “100 nM huCB1-SMALP binding (normalized to 10D10)” value in test [2] turned out to be 4.19 fold.

B17: LIBC674229-1 (IgG1 SEFL2 mAb) (antibody, V domains shown)
VH: B1 VH with V53I, Y55Q, A60K, L65F, R66K, T103V, L113M
VL: B13 VL with R94M, A96S, R97L, A98Q, L99T
As for B17, the “IC50 (nM, n = 4), antagonist activity” value in test [1] was 4.16 nM.

B18: LIBC523844-1 (antibody, V domains shown)
VH: B13 VH with Q58S, T60K, R66K, G67D, V69A, L114M
VL: B13 VL with H31S, R32S, Y35A, L38V
For the molecule B18, the “100 nM huCB1-SMALP binding (normalized to 10D10)” value in test [2] worked out at 6.69 fold. The “relative binding to 0.2 nM huCB1-ND (relative to 10D10N35Y)” value in test [3] came out at 3.78 fold. The “specific huCB1 binding (CB1 ND/Empty ND ratio)” value in test [4] is 8.58 ratio.

B19: LIBC674090-1 (IgG1 SEFL2 mAb) (antibody, V domains shown)
VH: B1 VH with V53I, T56A, Q58S, S64N, L65F
VL: B13 VL with R94M, A96S, R97L, A98Q, L99T
In the case of B19, in test [1], the “IC50 (nM, n = 4), antagonist activity” value amounted to 1.76 nM.

B20: LIBC680812-1 (IgG1 SEFL2 mAb) (antibody, V domains shown)
VH: B5 VH with A37G, I53V, N60K, R64S, G67D
VL: B5 VL with A92R, K93S, S94Y
For B20, in test [1], the “IC50 (nM, n = 4), antagonist activity” value was 0.68 nM.

B21: LIBC528148-1 (antibody, V domains shown)
VH: B12 VH with Y52H, Y55Q, S58Q, N60K, S64K, S67G, S76Y
VL: B10 VL
As for B21, the “100 nM huCB1-GFP-SMALP binding (normalized to 10D10N35Y)” value in test [5] worked out at 3.38 fold.

(Values after US20250277029A1 (Amgen, published 2025).)
